Among the data in paper PMC10569793 are stoichiometry N values, retold here.

One may read the stoichiometry N as a count of units in the complex or per binding partner.

The target in assay [1] is complex V (D. melanogaster), monomer (D. melanogaster (endogenous in fly mitochondria)). In words: native gel or EMSA; BN-PAGE (NativePAGE 3-12% Bis-Tris) of wild-type fly mitochondria solubilised with 4 mg digitonin per mg protein; Coomassie stain and in-gel activity of CI and CIV.
Assay [2] shares this target. In words: native gel or EMSA; complexome profiling: wild-type fly mitochondria solubilised with 6 g digitonin/g protein (50 mM NaCl, 5 mM 6-aminohexanoic acid, 1 mM EDTA, 50 mM imidazole/HCl pH 7.0), 4-16% gradient BN-PAGE, lane cut into 60 slices, LC-MS/MS, label-free quantification. On the technique in general: A gel shift assay detects complexes by their altered migration in electrophoresis.

The target of assay [3] is mitochondrial respiratory chain complex IV (D. melanogaster) (D. melanogaster (endogenous in fly mitochondria)). Kind of assay: native gel or EMSA; BN-PAGE (NativePAGE 3-12% Bis-Tris) of wild-type fly mitochondria solubilised with 4 mg digitonin per mg protein; Coomassie stain and in-gel activity of CI and CIV.
Assay [4] shares this target. In words: native gel or EMSA; BN-PAGE (NativePAGE 3-12% Bis-Tris) of mitochondria solubilised with 4 mg DDM per mg protein; Coomassie, in-gel activity, western blot of subunits; wild-type, Coa8 KO, Coa8 RNAi, strong Bcs1 RNAi and Ndufs4 RNAi flies or larvae with their controls.

Consider complex V (D. melanogaster), monomer, for which the stoichiometry N in assay [1] and in assay [2] was 2 in each case.
As to “mitochondrial respiratory chain complex IV (D. melanogaster)”, the stoichiometry N in assay [3] and in assay [4] was 2 each time.
